Patent US20220073596A1 (CITRYLL B V, published 2022)
Where no end group is shown, it is not given here. [ ]: non-standard residue; d: D form. Cit = NC(=O)NCCC[C@H](N)C(=O)O

Experiments:
[1] = molecular target: T1, N-terminal citrullinated peptide of Histone H2A (SEQ ID NO: 1), SGCitGKQGGKARA (also: biotin, place not given here); assay: peptide ELISA, biotin peptide on neutravidin
T1 peptide: SG[Cit]GKQGGKARA
Experimental: Optical density was measured by 450 nm and is a measure for the affinity of the antibodies used.

[2] = molecular target: T2, Arginine containing control peptide of Histone H2A N-terminus (SEQ ID NO: 3), SGRGKQGGKARA (free N-terminal NH2 group); assay: peptide ELISA
T2 construct: Control peptide with arginine in place of citrulline
T2 peptide: SGRGKQGGKARA

B1: Mouse monoclonal antibody Rmmab22.101 (antibody, V domains shown)
VH: RIQLVQSGPELKKPGEAVKISCKASGYTFTNYGMHWMKQTPGKDFRWMGWINTYSGEATYVDDFKGRFAFSLGTSASTAYLQINNLKNDDTATYFCLRGYTYQSFDEGGDYWGQGTALTVSS
VL: not shown
notes: Mouse monoclonal from hybridoma DSMZ ACC 3031; also called MQ22.101
binding result [1]: binds | binding result [2]: no binding
